The text below walks through data of article PMC6965647.

In this experiment the target is heat shock protein 90 (human (endogenous in brain tissue)) (UniProt P07900). As to the kind of experiment: native gel or EMSA; human brain homogenates (AD and ND) on 4–10% native gradient gel at 4 °C, immunoblot.

The substance “heat shock protein 90 (from UniProt P07900 1-732) (natural protein)” returned a stoichiometry N of 2.
